{
  "source": "patent US20250066456A1",
  "about": "(NOVAVAX, published 2025)",
  "key": {"[1]": {"molecular_target": "Delta Plus CoV S glycoprotein (recombinant) (Severe acute respiratory syndrome …, UniProt P0DTC2 14-1273)"}, "[2]": {"molecular_target": "T1, BV2373 (recombinant CoV S glycoprotein, Prototype) (SARS-CoV-2, UniProt P0DTC2 14-1273)", "experiment": "BLI, antibody on anti-mouse Fc biosensor, rS analyte"}, "[3]": {"molecular_target": "T2, BV2425 (recombinant CoV S glycoprotein, Alpha) (SARS-CoV-2, UniProt P0DTC2 14-1273)", "experiment": "BLI, antibody on anti-mouse Fc biosensor, rS analyte"}, "[4]": {"molecular_target": "T3, BV2443 (recombinant CoV S glycoprotein, Gamma) (SARS-CoV-2, UniProt P0DTC2 14-1273)", "experiment": "BLI, antibody on anti-mouse Fc biosensor, rS analyte"}, "[5]": {"molecular_target": "T4, BV2465 (recombinant CoV S glycoprotein, Delta) (SARS-CoV-2, UniProt P0DTC2 14-1273)", "experiment": "BLI, antibody on anti-mouse Fc biosensor, rS analyte"}, "[6]": {"molecular_target": "BV2509 (recombinant CoV S glycoprotein, BA.1) (SARS-CoV-2, UniProt P0DTC2 14-1273)", "experiment": "hACE2 receptor inhibition ELISA on coated rS; competitor hACE2-His"}, "[7]": {"molecular_target": "BV2523 (recombinant CoV S glycoprotein, BA.2) (SARS-CoV-2, UniProt P0DTC2 14-1273)", "experiment": "hACE2 receptor inhibition ELISA on coated rS; competitor hACE2-His"}, "[8]": {"molecular_target": "BV2540 (recombinant CoV S glycoprotein, BA.5) (SARS-CoV-2, UniProt P0DTC2 14-1273)", "experiment": "hACE2 receptor inhibition ELISA on coated rS; competitor hACE2-His"}, "[9]": {"molecular_target": "T5, BV2541 (recombinant CoV S glycoprotein, BA.4) (SARS-CoV-2, UniProt P0DTC2 14-1273)", "experiment": "hACE2 receptor inhibition ELISA on coated rS; competitor hACE2-His"}, "[10]": {"molecular_target": "BV2542 (recombinant CoV S glycoprotein, BA.2.12.1) (SARS-CoV-2, UniProt P0DTC2 14-1273)", "experiment": "hACE2 receptor inhibition ELISA on coated rS; competitor hACE2-His"}, "[11]": {"molecular_target": "BV2561 (recombinant CoV S glycoprotein, BA.2.75) (SARS-CoV-2, UniProt P0DTC2 14-1273)", "experiment": "hACE2 receptor inhibition ELISA on coated rS; competitor hACE2-His"}, "[12]": {"molecular_target": "BV2562 (recombinant CoV S glycoprotein, BA.4.6) (SARS-CoV-2, UniProt P0DTC2 14-1273)", "experiment": "hACE2 receptor inhibition ELISA on coated rS; competitor hACE2-His"}, "[13]": {"molecular_target": "BV2589 (recombinant CoV S glycoprotein, BQ.1.1) (SARS-CoV-2, UniProt P0DTC2 14-1273)", "experiment": "hACE2 receptor inhibition ELISA on coated rS; competitor hACE2-His"}, "[14]": {"molecular_target": "T2, BV2425 (recombinant CoV S glycoprotein, …)", "experiment": "ELISA, plate coated with rS, serial dilution of the mAb, anti-mouse HRP, A450"}, "[15]": {"molecular_target": "BV2438 (recombinant CoV S glycoprotein, Beta) (SARS-CoV-2, UniProt P0DTC2 14-1273)", "experiment": "ELISA, plate coated with rS, serial dilution of the mAb, anti-mouse HRP, A450"}, "[16]": {"molecular_target": "T3, BV2443 (recombinant CoV S glycoprotein, …)", "experiment": "ELISA, plate coated with rS, serial dilution of the mAb, anti-mouse HRP, A450"}, "[17]": {"molecular_target": "T4, BV2465 (recombinant CoV S glycoprotein, …)", "experiment": "ELISA, plate coated with rS, serial dilution of the mAb, anti-mouse HRP, A450"}, "[18]": {"molecular_target": "T5, BV2541 (recombinant CoV S glycoprotein, …)", "experiment": "ELISA on coated rS"}, "[19]": {"molecular_target": "T1, BV2373 (recombinant CoV S glycoprotein, …)", "experiment": "hACE2 receptor inhibition ELISA on coated rS; competitor hACE2-His"}, "[20]": {"molecular_target": "T4, BV2465 (recombinant CoV S glycoprotein, …)", "experiment": "hACE2 receptor inhibition ELISA on coated rS; competitor hACE2-His"}, "[21]": {"molecular_target": "T5, BV2541 (recombinant CoV S glycoprotein, …)", "experiment": "hACE2 receptor inhibition ELISA on coated rS; competitor hACE2-His", "remark": "listed apart in the source"}},
  "note": "Like-named read-outs stand apart in the source and are kept apart here.",
  "data": [
    {"binder": "239.12 (antibody, V domains shown) VH: EVKLEESGPVLVKPSQSLSLTCTVTGYSITSDYAWNWIRQFPGNKLEWMGYISNSAGTSYNPSLKSRISITRDTSKNQFFLQLNSVTTEDTATYYCASGGWSSYYAMDYWGQGTSVTVSS VL: DIQMTQSPASLSASVGETVTITCGASENIYGALNWYQRKQGKSPQLLIYGATNLADGMSSRFSGSGSGRQYSLKISSLHPDDVATYYCQNVLSTPYTFGGGTKLEIKR", "values": [
      {"measurement": "EC50", "setting": "[1]", "value": 0.0199, "unit": "µg/mL"},
      {"measurement": "Kd", "setting": "[2]", "value": 3.81, "unit": "pM"},
      {"measurement": "koff", "setting": "[2]", "value": "1.79e-07", "unit": "s⁻¹"},
      {"measurement": "kon", "setting": "[2]", "value": 52900, "unit": "M⁻¹ s⁻¹"},
      {"measurement": "Kd", "setting": "[3]", "value": 2.26, "unit": "pM"},
      {"measurement": "koff", "setting": "[3]", "value": "1.62e-07", "unit": "s⁻¹"},
      {"measurement": "kon", "setting": "[3]", "value": 72800, "unit": "M⁻¹ s⁻¹"},
      {"measurement": "Kd", "setting": "[4]", "value": 4.31, "unit": "pM"},
      {"measurement": "koff", "setting": "[4]", "value": "1.25e-07", "unit": "s⁻¹"},
      {"measurement": "kon", "setting": "[4]", "value": 29400, "unit": "M⁻¹ s⁻¹"},
      {"measurement": "Kd", "setting": "[5]", "value": 3.45, "unit": "pM"},
      {"measurement": "IC50", "setting": "[6]", "value": "> 3", "unit": "µg/mL"},
      {"measurement": "IC50", "setting": "[7]", "value": "> 3", "unit": "µg/mL"},
      {"measurement": "IC50", "setting": "[8]", "value": "> 5", "unit": "µg/mL"},
      {"measurement": "IC50", "setting": "[9]", "value": "> 3", "unit": "µg/mL"},
      {"measurement": "IC50", "setting": "[10]", "value": "> 3", "unit": "µg/mL"},
      {"measurement": "IC50", "setting": "[11]", "value": "> 5", "unit": "µg/mL"},
      {"measurement": "IC50", "setting": "[12]", "value": "> 5", "unit": "µg/mL"},
      {"measurement": "IC50", "setting": "[13]", "value": "> 3", "unit": "µg/mL"},
      {"measurement": "EC50", "setting": "[14]", "value": "~5", "unit": "µg/mL"},
      {"measurement": "EC50", "setting": "[15]", "value": "> 5", "unit": "µg/mL"},
      {"measurement": "EC50", "setting": "[16]", "value": "~5", "unit": "µg/mL"},
      {"measurement": "EC50", "setting": "[17]", "value": 0.025, "unit": "µg/mL"}
    ]},
    {"binder": "199.9 (antibody, V domains shown) VH: LVQLQQPGAELVKPGASVKLSCKASGYTFTSYFMYWVRQRPGQGLEWIGEINPSNGGNDFNEKFKSKATLTVDKSSSTAYMQLSSLTSEDSAVYYCTRSGDYGYDGFAYWGQGTLVTVSA VL: NIVLTQSPASLAVSLGQRATISCRASESVDTYGNSFMHWYQQKPGQPPKLLIYLASNLESGVPARFSGSGSRTDFTLTIDPVEADDAATYYCQQNNEDPLTFGAGTKLELK", "values": [
      {"measurement": "EC50", "setting": "[18]", "value": 0.016, "unit": "µg/mL"},
      {"measurement": "IC50", "setting": "[19]", "value": "> 3", "unit": "µg/mL"},
      {"measurement": "IC50", "setting": "[20]", "value": "> 3", "unit": "µg/mL"},
      {"measurement": "IC50", "setting": "[21]", "value": 0.038, "unit": "µg/mL"}
    ]}
  ]
}
